In IntAct's records for PubMed 9264463:

B1: Catenin alpha-1 (Mus musculus), P26231 (parent)
chain: MTAVHAGNINFKWDPKSLEIRTLAVERLLEPLVTQVTTLVNTNSKGPSNKKRGRSKKAHVLAASVEQATENFLEKGDKIAKESQFLKEELVVAVEDVRKQGDLMKSAAGEFADDPCSSVKRGNMVRAARALLSAVTRLLILADMADVYKLLVQLKVVEDGILKLRNAGNEQDLGIQYKALKPEVDKLNIMAAKRQQELKDVGNRDQMAAARGILQKNVPILYTASQACLQHPDVAAYKANRDLIYKQLQQAVTGISNAAQATASDDAAQHQGGSGGELAYALNNFDKQIIVDPLSFSEERFRPSLEERLESIISGAALMADSSCTRDDRRERIVAECNAVRQALQDLLSEYMGNAGRKERSDALNSAIDKMTKKTRDLRRQLRKAVMDHVSDSFLETNVPLLVLIEAAKNGNEKEVKEYAQVFREHANKLIEVANLACSISNNEEGVKLVRMSASQLEALCPQVINAALALAAKPQSKLAQENMDLFKEQWEKQVRVLTDAVDDITSIDDFLAVSENHILEDVNKCVIALQEKDVDGLDRTAGAIRGRAARVIHVVTSEMDNYEPGVYTEKVLEATKLLSNTVMPRFTEQVEAAVEALSSDPAQPMDENEFIDASRLVYDGIRDIRKAVLMIRTPEELDDSDFETEDFDVRSRTSVQTEDDQLIAGQSARAIMAQLPQEQKAKIAEQVASFQEEKSKLDAEVSKWDDSGNDIIVLAKQMCMIMMEMTDFTRGKGPLKNTSDVISAAKKIAEAGSRMDKLGRTIADHCPDSACKQDLLAYLQRIALYCHQLNICSKVKAEVQNLGGELVVSGVDSAMSLIQAAKNLMNAVVQTVKASYVASTKYQKSQGMASLNLPAVSWKMKAPEKKPLVKREKQDETQTKIKRASQKKHVNPVQALSEFKAMDSI

Variants of: B1
Conditions: with ctnb1_human CTNNB1, P35222
ctnb1_human CTNNB1, P35222, sequence (P35222 whole entry): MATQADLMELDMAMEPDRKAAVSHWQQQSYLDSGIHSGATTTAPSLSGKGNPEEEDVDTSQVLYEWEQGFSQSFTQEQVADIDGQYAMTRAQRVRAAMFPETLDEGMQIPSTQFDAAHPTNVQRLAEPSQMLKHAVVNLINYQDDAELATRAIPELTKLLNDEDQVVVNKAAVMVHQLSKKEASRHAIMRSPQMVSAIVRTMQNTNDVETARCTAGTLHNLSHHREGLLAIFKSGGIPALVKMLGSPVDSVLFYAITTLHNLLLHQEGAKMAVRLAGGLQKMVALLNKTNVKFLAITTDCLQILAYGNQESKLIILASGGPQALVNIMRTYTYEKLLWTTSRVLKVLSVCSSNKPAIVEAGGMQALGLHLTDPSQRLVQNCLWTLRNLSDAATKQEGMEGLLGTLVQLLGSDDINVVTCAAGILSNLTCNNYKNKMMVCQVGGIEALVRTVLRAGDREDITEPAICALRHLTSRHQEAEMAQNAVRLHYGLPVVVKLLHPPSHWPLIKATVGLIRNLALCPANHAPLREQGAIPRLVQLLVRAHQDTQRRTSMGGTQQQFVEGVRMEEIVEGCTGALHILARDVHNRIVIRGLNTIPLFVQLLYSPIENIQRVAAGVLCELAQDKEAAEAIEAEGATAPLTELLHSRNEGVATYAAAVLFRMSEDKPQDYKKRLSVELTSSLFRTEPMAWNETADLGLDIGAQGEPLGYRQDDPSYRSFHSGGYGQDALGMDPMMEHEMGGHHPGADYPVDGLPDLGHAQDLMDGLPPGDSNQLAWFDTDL

Row | effect of a mutation on the interaction | Variant
1 | decreasing interaction | L138A
2 | decreasing interaction | V135A
3 | increasing interaction | S133A
4 | decreasing interaction | A142S

More lines, now with the values behind:

Row | Variant | effect of a mutation on the interaction
5 | T136A | increasing interaction
6 | L132A | decreasing interaction
7 | V125A | decreasing interaction
8 | L139A | decreasing interaction
9 | R126A | increasing interaction
10 | L141A | decreasing interaction
11 | R137A | decreasing interaction
12 | R129A | increasing interaction
13 | L131A | decreasing interaction
